In publication PMC6168263 (The Journal of Cell Biology, 2018):

B1: 6His-Bnr1 FH2 (868-1,291) (domain or fragment, S. cerevisiae, UniProt P40450 868-1291, looked up)
chain: DLKPPPTEKRLKQIHWDKVEDIKDTLWEDTFQRQETIKELQTDGIFSQIEDIFKMKSPTKIANKRNAESSIALSSNNGKSSNELKKISFLSRDLAQQFGINLHMFSQLSDMEFVMKVLNCDNDIVQNVNILKFFCKEELVNIPKSMLNKYEPYSQGKDGKAVSDLQRADRIFLELCINLRFYWNARSKSLLTLSTYERDYYDLIFKLQKIDDAISHLNRSPKFKSLMFIITEIGNHMNKRIVKGIKLKSLTKLAFVRSSIDQNVSFLHFIEKVIRIKYPDIYGFVDDLKNIEDLGKISLEHVESECHEFHKKIEDLVTQFQVGKLSKEENLDPRDQIIKKVKFKINRAKTKSELLIGQCKLTLIDLNKLMKYYGEDPKDKESKNEFFQPFIEFLAMFKKCAKENIEKEEMERVYEQRKSLLDMR

Key:
[1] = target: the molecule itself; assay: negative-stain single-particle EM
649-biotin-SNAP-C-Bnr1 = 649-biotin-SNAP-C-Bnr1 (S. cerevisiae, UniProt P40450 757-1375, BG-649-PEG-Biotin on the SNAP tag); assay: TIRF microscopy of labelled protein on formin-coated beads
[2] = target: B1; assay: negative-stain single-particle EM
[3] = target: 6His-Bnr1 FH1-FH2-C (residues 757-1,375) (S. cerevisiae, UniProt P40450 757-1375); assay: negative-stain single-particle EM
Sequence of 6His-Bnr1 FH1-FH2-C (residues 757-1,375) (P40450 757-1375): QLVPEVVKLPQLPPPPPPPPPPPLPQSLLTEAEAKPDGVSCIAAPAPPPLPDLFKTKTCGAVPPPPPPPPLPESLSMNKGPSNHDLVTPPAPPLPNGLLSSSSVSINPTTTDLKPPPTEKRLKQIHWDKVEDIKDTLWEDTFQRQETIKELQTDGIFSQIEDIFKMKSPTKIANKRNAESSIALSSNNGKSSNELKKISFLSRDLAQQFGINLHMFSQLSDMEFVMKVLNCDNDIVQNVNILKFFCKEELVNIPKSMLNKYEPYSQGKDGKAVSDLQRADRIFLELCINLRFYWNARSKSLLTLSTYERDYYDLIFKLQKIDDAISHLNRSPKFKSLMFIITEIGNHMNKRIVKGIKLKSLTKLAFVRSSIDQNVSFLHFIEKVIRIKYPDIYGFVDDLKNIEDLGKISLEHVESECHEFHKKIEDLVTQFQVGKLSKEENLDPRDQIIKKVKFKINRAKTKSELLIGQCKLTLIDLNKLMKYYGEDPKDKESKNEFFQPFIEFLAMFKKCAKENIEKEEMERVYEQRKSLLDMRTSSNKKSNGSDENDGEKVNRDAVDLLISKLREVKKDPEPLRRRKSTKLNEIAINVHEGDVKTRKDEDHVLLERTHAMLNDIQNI

Sequence of 649-biotin-SNAP-C-Bnr1 (P40450 757-1375): as above

## B1
[1]
  stoichiometry N: 2

B2: C-Bud6 (550-788) (domain or fragment, S. cerevisiae, UniProt P41697 550-788, looked up)
chain: AKNSSNRMYMEKSQTELGDLSDTLLSKVDDLQDVIEIMRKDVAERRSQPAKKKLETVSKDLENAQADVLKLQEFIDTEKPHWKKTWEAELDKVCEEQQFLTLQEELILDLKEDLGKALETFDLIKLCCEEQEKNPSRSKSNPILPIMRPGTFNQVREQVMVAVQSLNPDHDSRVEAIDKAEKMWEMERKLKASNEFDDELENFVGNSNLKKSGGFEEVERIRKQKDEANLRAYFGPGFT
649-biotin-SNAP-C-Bnr1
  binding result: binds

B3: MBP-Hof1 F-BAR (1-275) (domain or fragment, S. cerevisiae, UniProt Q05080 1-275, looked up)
chain: MSYSYEACFWDPNDNGVNILLGHISQGIRSCDSMILFFKQRSELEKDYARRLGAITGKLDKDIGTNMDYGKLNETFNVVLSVEKARAQSHSKQSEILFRQIYTDTKAFAANLQARYTTLSGKIERLRMDKFNKKKGCEVLQKKLQDAQIRFRDLQLNENNMIGAKRVEHNKRELLKWESNSQEYKVQLDVLKQEYKASQKFWIHEWAQLSCELQEMENARISFLQSKLQQFATSSMETYILEQTKMDMLTNHLNSFTAADEISTFSKENGTGRLK
[2]
  stoichiometry N: 2 Bnr1 FH2 domains per Hof1 F-BAR domain

B4: MBP-Hof1-NT-SNAP-549 (domain or fragment, S. cerevisiae, UniProt Q05080 1-340, looked up)
chain: MSYSYEACFWDPNDNGVNILLGHISQGIRSCDSMILFFKQRSELEKDYARRLGAITGKLDKDIGTNMDYGKLNETFNVVLSVEKARAQSHSKQSEILFRQIYTDTKAFAANLQARYTTLSGKIERLRMDKFNKKKGCEVLQKKLQDAQIRFRDLQLNENNMIGAKRVEHNKRELLKWESNSQEYKVQLDVLKQEYKASQKFWIHEWAQLSCELQEMENARISFLQSKLQQFATSSMETYILEQTKMDMLTNHLNSFTAADEISTFSKENGTGRLKHKTSKGDMNSSANWAQMSSISTTSKKTESYMDNIRKLSSQLKETENKRKLASIDKYEKPLPSPEV
modifications: BG-549 SNAP dye on the SNAP tag
649-biotin-SNAP-C-Bnr1
  binding result: binds

B5: MBP-Hof1-FL-6His (natural protein, S. cerevisiae, UniProt Q05080 1-669, looked up)
chain: MSYSYEACFWDPNDNGVNILLGHISQGIRSCDSMILFFKQRSELEKDYARRLGAITGKLDKDIGTNMDYGKLNETFNVVLSVEKARAQSHSKQSEILFRQIYTDTKAFAANLQARYTTLSGKIERLRMDKFNKKKGCEVLQKKLQDAQIRFRDLQLNENNMIGAKRVEHNKRELLKWESNSQEYKVQLDVLKQEYKASQKFWIHEWAQLSCELQEMENARISFLQSKLQQFATSSMETYILEQTKMDMLTNHLNSFTAADEISTFSKENGTGRLKHKTSKGDMNSSANWAQMSSISTTSKKTESYMDNIRKLSSQLKETENKRKLASIDKYEKPLPSPEVTMATQFRNSTPVIRNETKVVANPTLSLRSSPVQLQSNVDDSVLRQKPDKPRPIVGEEQLKPDEDSKNPDEKGLMVHKRNQSLSSPSESSSSNPTDFSHIKKRQSMESMTTSVSSMANSIDDSQRFAKSWNSSNRKRKSMSHLQVPSSASSRSDDGGRTPNSAHNLNEDDYNTRRDTSTSTILFKPPVAVRGTSRGHTHRQSMIMQDSSNPIEDALYEMERIQSSSKPGTKTGNIMDERGVVRDRGITVTLPIVTSEGFPVIEYAKAMYPLIGNEAPGLANFHKGDYLLITEIVNKDWYKGEVYDNDRIDRNHRIGLIPYNFIQLLHQGL
[3]
  stoichiometry N: 2 C-Bnr1 dimers per Hof1-FL dimer
